According to patent US20240301076A1 (CEPHALON, published 2024):

T1: human CXCR2 (human, UniProt P25025 1-360)
T1 construct: also called CXC chemokine receptor 2; hCXCR2
T1 sequence: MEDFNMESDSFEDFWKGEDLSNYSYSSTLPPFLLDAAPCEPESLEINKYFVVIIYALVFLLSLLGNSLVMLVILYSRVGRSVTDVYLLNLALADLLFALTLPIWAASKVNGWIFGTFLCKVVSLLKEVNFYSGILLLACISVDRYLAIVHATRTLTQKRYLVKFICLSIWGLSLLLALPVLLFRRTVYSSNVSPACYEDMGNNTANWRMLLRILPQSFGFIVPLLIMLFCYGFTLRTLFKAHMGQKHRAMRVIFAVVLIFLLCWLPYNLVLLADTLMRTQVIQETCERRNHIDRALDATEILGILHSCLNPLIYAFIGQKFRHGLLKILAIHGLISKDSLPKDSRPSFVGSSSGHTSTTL

T2: human CXCR1 (human, UniProt P25024 1-350)
T2 sequence: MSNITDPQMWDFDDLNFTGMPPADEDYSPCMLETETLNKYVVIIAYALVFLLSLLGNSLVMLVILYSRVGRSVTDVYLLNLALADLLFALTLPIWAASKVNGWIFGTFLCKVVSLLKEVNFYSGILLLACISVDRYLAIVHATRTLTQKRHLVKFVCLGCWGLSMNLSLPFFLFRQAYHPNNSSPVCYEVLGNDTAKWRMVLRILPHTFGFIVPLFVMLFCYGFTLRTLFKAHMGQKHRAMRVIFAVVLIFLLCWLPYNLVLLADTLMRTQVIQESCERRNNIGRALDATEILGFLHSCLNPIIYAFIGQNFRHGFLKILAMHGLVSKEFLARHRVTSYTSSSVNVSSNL


Key:
human CXCR2 = target: T1, human CXCR2; test: flow cytometry, transfected Expi293F cells
Description: (§1) Harvested cells were resuspended in FACS buffer (1×PBS+0.5% (w/v) bovine serum albumin (BSA)+2 mM EDTA pH 7.2). Approximately 2×10⁵ cells were added per well in a 96-well round-bottomed plate. Cells were pelleted by centrifugation at 400 g for 5 mins at 4° C. and supernatants discarded. 25 μL of each test antibody or control antibody was added to the cells and incubated for 30 minutes at 4° C. Cells were washed twice in 100 μL FACS buffer followed by centrifugation at 400 g for 5 mins at 4° C.
(§2) For detection, 50 μL of secondary antibody (Table 2) was added to relevant samples. Commercially available antibodies that bound to transfected CXCR family members were used as positive controls to ensure that the cells were expressing the receptors. Cells were washed twice in 200 μL of FACS buffer followed by centrifugation at 400 g for 5 mins at 4° C. Before sample acquisition, cells were resuspended in 100 μL of FACS buffer. Samples were acquired using the high throughput sampler on a FACSCanto™ II cytometer (Beckton-Dickinson).
(§3) These antibody variable regions were then generated by gene synthesis and subcloned into mammalian expression vectors as described in General Methods. Antibodies were produced by co-expression of heavy and light chain plasmids in Expi293F™ cells and purified by protein A column chromatography as described in General Methods. Where several heavy and/or light chains were identified from the same hybridoma cells, each heavy chain was paired with each light chain and the resulting antibodies given suffix a, b, c, etc. Purified antibodies were desalted into Sorensen's PBS pH 5.8 and tested by flow cytometry for binding to Expi293F™ cells transfected with human CXCR2 or human CXCR1 and mock transfected Expi293F™ cells.

human CXCR1 = target: T2, human CXCR1; test: flow cytometry, transfected Expi293F cells
Description: as §1, §2, §3

Row | Binder | binding result (human CXCR2) | binding result (human CXCR1)
1 | BKO-10G10 (antibody, human IgG4 S228P, lambda, V domains shown, recombinant human IgG4 S228P, lambda) VH: QLQLQESGPGLVKPSETLSLTCTVSGGSIRRSSYYWGWIRQPPGKGLEWIGSFYNSGNTYYKPSLKSRVAISVDTPKNQFSLKLSSVTAADTAVYYCARGYSSGGFDPWGQGTLVTVSS VL: QSALTQPASVSGSPGQSITISCTGTSSDVGGYNYVSWCQQHPGKAPKIMIFDVSNRPSGVSNRFSGSKSGNTASLTISGLQAEDEADYYCSSYTSSSTWVFGGGTRLTVLG | binds | no binding
2 | BKO-3F4 (antibody, human IgG4 S228P, lambda, V domains shown, recombinant human IgG4 S228P, lambda) VH: EVQLLESGGGLVQPGGSLRLSCAASGLTFSSYAMSWVRQAPGKGLEWVSAISGSGGKIYYADSVKGRFTISRDNSKNTLYLQMNSLRAEDTAVYYCAIQVGYWGQGTLVTVSS VL: QSALTQPPSASGSPGQSVTMSCTGTSSDVGGYNYVTWYQQHPGKAPKLMIYEVSKRPSGVPARFSGSKSGNTASLTVSGLQAEDEADYYCSSYAGPNNFGVFGGGTKLTVLG | binds | no binding
3 | BKO-8B6 (antibody, human IgG4 S228P, lambda, V domains shown, recombinant human IgG4 S228P, lambda) VH: EVQLLESGGGLVQPGGSLRLSCAASGFTFSSNAMSWVRQAPGKGLEWVSAISNSGRSTYYADSVKGRFTISRDSSKNTLYLLMNSLRAEDSAVYYCAIKLGYWGQGSLVTVSS VL: QSALTQPPSASGSPGQSVTISCTGTSSDVGGYNYVSWYQQHPGKAPKLMMYEVSKRPSGVPDRFSGSKSGNTASLTVSGLQAEDEADYYCSSYAGSDNFGVFGGGTRLTVLG | binds | no binding
4 | BKO-5G11 (antibody, human IgG4 S228P, lambda, V domains shown, recombinant human IgG4 S228P, lambda) VH: EVQLLESGGGLVQPGGSLRLSCAVSGFTFSNYAMTWVRQAPGKGLEWVSAISGRGSRTYYADSVKGRFTISRDTSKNTLYLQMNSLRAEDTAVYYCAKMDYWGQGTLVTVSS VL: QSALTQPPSASGSPGQSVTISCTGTSSDVGGYNYVSWYQQHPGKAPKLMIFEVSKRPSGVPDRFSGSKSGNTASLTVSGLQAEDEADYYCSSYAGSNNFGVFGGGTKLTVLG | binds | no binding
5 | BKO-7G10_a (antibody, human IgG4 S228P, lambda, V domains shown, recombinant human IgG4 S228P, lambda) VH: EVQLLESGGGLVQPGGSLRLSCAVSGFTFSNYAMTWVRQAPGKGLEWVSAISGRGSRTYYADSVKGRFTISRDTSKNTLYLQMNSLRAEDTAVYYCAKMDYWGQGTLVTVSS VL: QSALTQPPSASGSPGQSVTISCTGTSSDVGGYNYVSWYQQHPGKAPKLMIFEVSKRPSGVPDRFSGSKSGNTASLTVSGLQAEDEADYYCSSYAGSNNFGVFGGGTKLTVLG | binds | no binding
6 | BKO-9A8 (antibody, human IgG4 S228P, lambda, V domains shown, recombinant human IgG4 S228P, lambda) VH: EVQLLESGGGLVQTGGSLRLSCAASGFTFSSNTMSWVRQAPGKGLEWVSAISGSGGRTYYVDSVKGRFTISRDNSKNTLYLQMHSLRAEDTAVYYCAIQLGSWGQGILVTVSS VL: QSALTQPPSASGSPGQSVTISCTGTSSDVGAYNYVSWYQQHPGKAPKLMIYEVTKRPSGVPDRFSGSKSGNTASLTVSGLQAEDEADYYCSSYAGNNNFGVFGGGTKLTVLG | binds | no binding
7 | BKO-7H8_b (antibody, human IgG4 S228P, lambda, V domains shown, recombinant human IgG4 S228P, lambda) VH: EVQLLESGGGLVQPGGSLRLSCAASGYTFTSSTMSWVRQAPGKGLEWVTAISGRGGRTYYADSVKGRFTISRDNSKNTLYLQMNSLRAEDTAVYYCAIQLGNWGQGILVTVSS VL: QSALTQPPSASGSPGQSVTISCTGTSSDIGGYNYVSWYQQHPGKAPKLVIYEVNMRPSGVPARFSGSKSGNTASLTVSGLQAEDEADYYCSSYAGNDNFGVFGGGTKLSVLG | binds | no binding
8 | BKO-8H8_b (antibody, human IgG4 S228P, lambda, V domains shown, recombinant human IgG4 S228P, lambda) VH: EVQLLESGGGLVQPGGSLRLSCAASGLTVSSYAMSWVRQAPGKGLEWVSAISGSGGKIYYADSVKGRFTISRDNSKNTLYLQMNSLSAEDTAVYYCAIQVGYWGQGTLVTVSS VL: QSALTQPPSASGSPGQSVTMSCTGTSSDVGGYNYVTWYQQHPGKAPKLVIYEVSKRPSGVPVRFSGSKSGNTASLTVSGLQAEDEADYYCSSYAGPNNFGIFGGGTKLTVLG | binds | no binding
9 | BKO-3D6 (antibody, human IgG4 S228P, lambda, V domains shown, recombinant human IgG4 S228P, lambda) VH: EVQLVESGGDLVQPGRSLRLSCAASGFTFDDYAMHWVRQAPGKGLKWVSGITWNSGNKRYADSVKGRFTISRDNAKNSLYLQMNSLRAEDTALYYCAKDMKGSGTYFPAFDYWGQGTLVTVSS VL: not shown | binds | no binding
10 | BKO-4F10 (antibody, human IgG4 S228P, lambda, recombinant human IgG4 S228P, lambda) heavy: not shown light: QSALTQPASVSGSPGQSITISCTGTSSDVGGYNYVSWYQQHPGKAPKLMIYDVSNRPSGISNRFSGSKSGNTASLTISGLQAEDEADYYCSSYTSSSTWVFGGGTKLTVLGQPKAAPSVTLFPPSSEELQANKATLVCLISDFYPGAVTVAWKADSSPVKAGVETTTPSKQSNNKYAASSYLSLTPEQWKSHRSYSCQVTHEGSTVEKTVAPTECS | binds | no binding
11 | BKO-5G6_c (antibody, human IgG4 S228P, lambda, recombinant human IgG4 S228P, lambda) heavy: not shown light: QSALTQPASVSGSPGQSITISCTGTSSDVGGYNYVSWYQQHPGKAPKLMIYDVSNRPSGISNRFSGSKSGNTASLTISGLQAEDEADYYCSSYTSSSTWVFGGGTTLTVLGQPKAAPSVTLFPPSSEELQANKATLVCLISDFYPGAVTVAWKADSSPVKAGVETTTPSKQSNNKYAASSYLSLTPEQWKSHRSYSCQVTHEGSTVEKTVAPTECS | binds | no binding
12 | BKO-3A9_b (antibody, human IgG4 S228P, lambda, V domains shown, recombinant human IgG4 S228P, lambda) VH: QVQVQQSGPGLVKPSQTLSLTCAISGDSVSSNSAAWNWIRQSPSRGLEWLGRTYYRSKWYNDYAVSLKRRITIRPDTSRNHFSLHLSSVTPEDTAVYYCVRAYCGGGSCLDYWGQGTLVTVSS VL: QSALTQPASASGSPGQSITISCTGTSSDVGNYNRVSWYQQHPGKVPKLMIYEGSKRPSGISNRFSGSKSGNTASLTISGLQPEDEADYFCCSYAGSNTLVFGGGTKLTVLG | binds | no binding
13 | BKO-6A1_b (antibody, human IgG4 S228P, lambda, V domains shown, recombinant human IgG4 S228P, lambda) VH: QVQLKQWGAGLLKPSETLSLTCAVYGGSFSGYYWTWIRQPPGKGLEWIGEINHSGSTNYNPSLKSRVTMSVDTSKNQFSLKLRSVTAADTAVYYCARGEVRGLITLYWYFDVWGRGSLVTVSS VL: SSELTQDPAVSVALGQTVRITCQGDSLRSYYASWYQQKPGQAPVLVIYGKNNRPSGIPDRFSGSSSGNTASLTITGAQAEDEADYYCNSRDSSGNHVVFGGGTKLTVLG | binds | no binding
14 | BKO-8C4 (antibody, human IgG4 S228P, lambda, V domains shown, recombinant human IgG4 S228P, lambda) VH: QLQLQESGPGLVKPSETLSLTCTVSGGSIRTSSYYWGWIRQPPGKGLEYIGSIYYSGTTYYNPSLKSRVTMSVDTSKNQFSLKLSSVTAADTAVYYCARHGRVREVPPFDYWGQGTLVTVSS VL: SSELTQDPAVSVALGQTVRITCQGDSLRYYYASWYQQKPGQAPVLVIYDENSRPSGIPDRFSGSSSGNTASLRITGTQAEDEADYYCNSRDTSGNHWAFGGGTKLTVLG | binds | no binding
15 | BKO_7C11 (antibody, human IgG4 S228P, lambda, V domains shown, recombinant human IgG4 S228P, lambda) VH: QVQLQQWGAGLLKPSETLSLTCAVYGGSFSGYYWSWIRQPPGKGLEWIGEINHSRNTNYNPSLKSRVTISVDTSKNQFSLKLSSVTAADTAVYYCARGEVRGVFTLYWYFDVWGRGTLVTVSS VL: SSELTQGPAVSVALGQTVRITCQGNSLRFYYASWYQQRPGQAPILVIYDKNNRPSGIPDRFSGSSSGNTASLTITGAQAEDEADYYCNSRDSSGYYMIFGGGTKLTVLG | binds | no binding
16 | BKO-5E8 (antibody, human IgG4 S228P, lambda, V domains shown, recombinant human IgG4 S228P, lambda) VH: EVQLLESGGGLVQPGGSLRLSCAASGFTFSSYAMSWVRQAPGRGLEWVSAIRGSGAGTYYADSMKGRFTISRDNSKDTLYLLMNSLRAEDTAVYYCSKLEAVSGTGKYFQHWGQGTLVTVSS VL: SYELTQPPSVSVSPGQTANITCSGDTLGDKFACWYQQKPGQSPVLVIYQDTKRPSGIPERFSGSKSGITATLTISGTQAMDEADFYCQAWNSRGVVFGGGTRLTVLG | binds | no binding
